{
  "source": "paper PMC10161774",
  "target": "T1, Recombinant tissue transglutaminase (tG) (human), P21980",
  "T1 chain": "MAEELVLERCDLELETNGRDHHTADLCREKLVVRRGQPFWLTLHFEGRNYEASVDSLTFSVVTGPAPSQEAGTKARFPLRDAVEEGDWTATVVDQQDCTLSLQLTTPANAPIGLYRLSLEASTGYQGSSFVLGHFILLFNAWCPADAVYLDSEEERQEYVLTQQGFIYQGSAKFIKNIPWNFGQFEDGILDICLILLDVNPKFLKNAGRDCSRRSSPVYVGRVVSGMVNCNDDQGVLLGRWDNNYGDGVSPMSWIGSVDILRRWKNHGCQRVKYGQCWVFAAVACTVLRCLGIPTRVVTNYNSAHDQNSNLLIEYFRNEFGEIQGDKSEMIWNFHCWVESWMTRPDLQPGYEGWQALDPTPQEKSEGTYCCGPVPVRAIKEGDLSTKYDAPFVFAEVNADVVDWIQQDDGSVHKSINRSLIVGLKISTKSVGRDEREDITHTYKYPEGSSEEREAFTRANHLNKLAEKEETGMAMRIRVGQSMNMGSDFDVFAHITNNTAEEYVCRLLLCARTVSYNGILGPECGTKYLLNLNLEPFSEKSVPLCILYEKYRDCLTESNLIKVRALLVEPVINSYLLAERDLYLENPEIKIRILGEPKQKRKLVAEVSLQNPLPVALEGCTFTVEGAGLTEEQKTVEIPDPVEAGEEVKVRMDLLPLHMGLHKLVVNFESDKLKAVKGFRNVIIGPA",
  "assay": "time-resolved SAXS; Kenics mixer (straight opening device, reaction class 3); 2 mg ml^-1 tG mixed with 4 mM CaCl2 in 20 mM HEPES pH 7.5, 100 mM NaCl, 10% glycerol, 1 mM DTT; time points 32-1500 ms; monomer to dimer",
  "details": "remark: other sources report otherwise",
  "data": [
    {"binder": "Recombinant tissue transglutaminase (tG), P21980 1-687 (enzyme) MAEELVLERCDLELETNGRDHHTADLCREKLVVRRGQPFWLTLHFEGRNYEASVDSLTFSVVTGPAPSQEAGTKARFPLRDAVEEGDWTATVVDQQDCTLSLQLTTPANAPIGLYRLSLEASTGYQGSSFVLGHFILLFNAWCPADAVYLDSEEERQEYVLTQQGFIYQGSAKFIKNIPWNFGQFEDGILDICLILLDVNPKFLKNAGRDCSRRSSPVYVGRVVSGMVNCNDDQGVLLGRWDNNYGDGVSPMSWIGSVDILRRWKNHGCQRVKYGQCWVFAAVACTVLRCLGIPTRVVTNYNSAHDQNSNLLIEYFRNEFGEIQGDKSEMIWNFHCWVESWMTRPDLQPGYEGWQALDPTPQEKSEGTYCCGPVPVRAIKEGDLSTKYDAPFVFAEVNADVVDWIQQDDGSVHKSINRSLIVGLKISTKSVGRDEREDITHTYKYPEGSSEEREAFTRANHLNKLAEKEETGMAMRIRVGQSMNMGSDFDVFAHITNNTAEEYVCRLLLCARTVSYNGILGPECGTKYLLNLNLEPFSEKSVPLCILYEKYRDCLTESNLIKVRALLVEPVINSYLLAERDLYLENPEIKIRILGEPKQKRKLVAEVSLQNPLPVALEGCTFTVEGAGLTEEQKTVEIPDPVEAGEEVKVRMDLLPLHMGLHKLVVNFESDKLKAVKGFRNVIIGPA", "values": [
      {"measurement": "stoichiometry N", "result": 2}
    ]}
  ]
}
